Data as given in paper PMC3607624 (Journal of molecular biology, 2011).

What was measured:
F-actin = F-actin (UniProt P68135 1-377); experiment: co-sedimentation
[1] = target: microtubules (tubulin heterodimer) (UniProt P02550 1-451); experiment: co-sedimentation
Chain of microtubules (tubulin heterodimer) (P02550 whole entry, chain 1 of 2): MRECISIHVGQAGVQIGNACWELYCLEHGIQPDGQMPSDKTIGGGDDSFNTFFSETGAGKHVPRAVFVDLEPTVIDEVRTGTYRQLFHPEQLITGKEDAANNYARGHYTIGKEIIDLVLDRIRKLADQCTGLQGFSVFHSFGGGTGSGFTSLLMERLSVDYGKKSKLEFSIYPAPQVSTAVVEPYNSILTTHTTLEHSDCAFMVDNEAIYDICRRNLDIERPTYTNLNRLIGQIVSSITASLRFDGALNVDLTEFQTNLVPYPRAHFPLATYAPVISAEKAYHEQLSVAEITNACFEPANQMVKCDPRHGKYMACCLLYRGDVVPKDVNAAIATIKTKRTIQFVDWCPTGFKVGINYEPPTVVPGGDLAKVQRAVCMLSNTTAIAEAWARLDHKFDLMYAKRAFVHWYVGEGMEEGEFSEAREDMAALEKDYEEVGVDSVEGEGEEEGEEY
Chain of microtubules (tubulin heterodimer) (P02554 whole entry, chain 2 of 2, further chain): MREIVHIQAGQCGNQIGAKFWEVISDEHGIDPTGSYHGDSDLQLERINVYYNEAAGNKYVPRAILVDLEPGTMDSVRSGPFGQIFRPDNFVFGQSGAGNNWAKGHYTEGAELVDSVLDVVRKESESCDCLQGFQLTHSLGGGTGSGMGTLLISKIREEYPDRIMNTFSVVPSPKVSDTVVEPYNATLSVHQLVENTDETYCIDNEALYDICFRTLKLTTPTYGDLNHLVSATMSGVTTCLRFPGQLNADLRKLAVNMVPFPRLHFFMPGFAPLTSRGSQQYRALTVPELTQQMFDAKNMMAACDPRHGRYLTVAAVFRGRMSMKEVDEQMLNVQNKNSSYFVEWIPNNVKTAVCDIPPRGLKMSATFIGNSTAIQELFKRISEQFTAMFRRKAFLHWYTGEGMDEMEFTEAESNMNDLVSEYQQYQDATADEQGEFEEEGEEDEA

Kd (F-actin): 13.7 ± 2.6 µM
Kd [1]: 1.7 ± 0.5 µM
B1: Dictyostelium myosin 7 N-terminal MyTH4/FERM domain (MF1) (domain or fragment, Dictyostelium discoideum, UniProt Q9U1M8 1085-1620, looked up)
chain: SATATGNNTPNSSSASASQSTNQVNPQPTVSVVELPQILNDEEISLYSFYDYANKNFNIEKLKQKDDIFSYQKSHIKSSLLVHSDAEQTKVAVEIFSKVLHYMNSNPLVSKKDPADFYSPVKFILTKGLAIESLRDEIYCQLIKQSTSNPIQDLNIRVWELIHFTCSTFPPTRKLIKYFAAYLKTTIQQSDVSKSVKDSAQASYFILQRFTLNGARKQVPSVTELESIKENRPIFVRITATDGSLKGLHIDSATTCQESSNDLSQRSRMRVNSKENGFTIIESFNGIERDIAPTDKLCDVLSKVENLQATLSSKIQVNFKFVFKKKLFFDNITNNVPTTSINVENEFYYHQLFNDLFNSNYCKDQDYQISIGSLKLQFESSDYTDEIRAWLPGNGRGKYFTTDIEKNRFDDFINKYKSHKGLSPEDAKKQMVQLLEKHPLANCSLVVCEHQSESLPYPKNFVLALNVNGINIYDPATSKMLESVKYSNQSQQNLKSDDKSVSIILENKSTLQAFTGDVQKLVSLIKEYSLYLRNNA
